According to the supplement of paper PMC10567573:

B1: TRIM63 (parent)
chain: QEKKLSFIEALIQQYQEQLDKSTK

Variants of: B1
Test: protein stability index of a GFP-peptide fusion (GPS, HEK-293T) (PSI 1-6); higher = more stable
Details: c terminus: a fixed tail appended
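Further: lentivirally expressed fusions sorted by FACS into six bins by GFP to DsRed ratio, PSI derived from sequencing read proportions per bin multiplied by bin number.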

Protein stability index of substitutions, site by site:
S6: L 2.2, M 2.03, N 2.59, P 3.17, Q 2.43, R 3.16, T 2.54, V 2.42, W 1.46, Y 2.09
F7: A 4.05, C 3.23, D 4.53, E 4.38, G 4.64, H 4.2, I 2.58, L 3.06, M 3.33, N 4.97, P 4.36, Q 4.05, R 3.92, S 4.28, T 3.98, V 3.45, W 4.19, Y 2.48
I8: A 3.83, C 4.38, D 4.44, E 4.76, F 2.78, G 5.05, H 4.92, K 4.17, L 2.14, M 3.96, N 5.18, P 4.89, Q 4.32, R 4.08, T 2.64, V 1.28, W 3.56, Y 3.63
E9: A 1.93, C 2.05, F 1.8, H 2.33, I 2.06, K 3.62, L 1.39, M 2.22, N 2.64, P 3.96, Q 2.76, R 2.82, S 2.68, T 1.79, V 1.7, W 1.6, Y 1.57
A10: C 2.14, D 3.47, E 3.42, F 2.28, G 3.33, H 2.75, I 2.54, K 2.39, L 2.37, M 1.96, N 2.73, P 3.98, Q 2.89, R 2.53, S 2.89, T 2.72, V 2.38, W 1.63, Y 2.06
L11: A 3.71, C 4.29, D 5.13, E 4.73, F 2.79, G 4.46, H 4.63, I 2.02, K 4.45, M 3.09, N 4.78, P 5.29, Q 4.81, R 4.58, S 5.13, T 3.96, V 2.65, W 3.43, Y 3.31
I12: A 3.8, C 3.87, D 5.25, E 4.39, F 3.18, G 3.98, K 3.7, L 3.51, M 2.95, N 4.47, P 5.67, R 2.33, S 4.28, T 4.45, V 2.6, W 2.11, Y 2.37
Q13: A 2.46, C 2.67, D 3.54, E 3.54, F 1.84, G 2.53, I 2.02, K 2.64, L 2.1, M 2.02, N 2.79, P 4.35, R 2.7, T 2.74, V 1.98, W 1.32, Y 2.35
Q14: A 2.43, C 2.8, D 3.17, E 2.91, G 3.13, H 2.03, I 2.98, L 2.89, M 2.44, N 3.03, P 3.86, R 2.2, S 3.5, T 3.07, V 2.49, W 1.07, Y 1.95
Y15: A 2.61, C 2.1, D 4.75, F 1.86, G 4.41, H 3.38, I 2.1, K 3.9, L 2.08, N 3.75, P 4.56, Q 3.87, R 4.63, S 3.52, T 2.98
